Patent US20170066831A1 (Janssen / Centocor, published 2017)

T1: human ST2L extracellular domain with C-terminal His6 tag (human, UniProt Q01638 19-328)
T1 construct: also called huST2L-ECD; ST2L-ECD
T1 sequence: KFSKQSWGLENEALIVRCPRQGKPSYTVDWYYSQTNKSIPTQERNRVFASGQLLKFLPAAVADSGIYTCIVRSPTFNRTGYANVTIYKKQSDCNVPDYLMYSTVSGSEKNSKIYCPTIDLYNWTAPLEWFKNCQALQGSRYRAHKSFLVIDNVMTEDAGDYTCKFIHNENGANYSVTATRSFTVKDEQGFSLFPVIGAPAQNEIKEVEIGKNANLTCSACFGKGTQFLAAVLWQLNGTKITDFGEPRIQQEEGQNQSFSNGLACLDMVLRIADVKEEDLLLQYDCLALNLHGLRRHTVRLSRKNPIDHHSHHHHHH

T2: human ST2L, full length, on cells (human, UniProt Q01638 19-556)
T2 sequence: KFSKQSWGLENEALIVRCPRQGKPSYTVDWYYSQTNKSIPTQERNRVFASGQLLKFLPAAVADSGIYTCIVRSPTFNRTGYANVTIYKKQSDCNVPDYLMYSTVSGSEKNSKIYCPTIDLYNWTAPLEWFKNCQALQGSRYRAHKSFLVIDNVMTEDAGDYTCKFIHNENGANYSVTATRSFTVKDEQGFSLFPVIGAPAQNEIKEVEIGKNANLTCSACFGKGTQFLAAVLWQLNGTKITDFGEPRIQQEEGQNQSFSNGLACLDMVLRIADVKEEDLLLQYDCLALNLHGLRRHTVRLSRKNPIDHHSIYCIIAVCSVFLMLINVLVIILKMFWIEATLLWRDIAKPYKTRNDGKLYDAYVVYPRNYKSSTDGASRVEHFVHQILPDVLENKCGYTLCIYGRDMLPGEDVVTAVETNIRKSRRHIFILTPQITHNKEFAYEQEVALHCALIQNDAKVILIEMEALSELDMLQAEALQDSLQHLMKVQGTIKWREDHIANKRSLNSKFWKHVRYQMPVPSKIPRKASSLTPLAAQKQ

T3: cynomolgus (Macaca fascicularis) ST2L extracellular domain with C-terminal His6 tag (Macaca fascicularis (cynomolgus), UniProt Q01638 19-321 (human entry))
T3 construct: also called cyno ST2L-ECD; cynoST2L-ECD
T3 chain: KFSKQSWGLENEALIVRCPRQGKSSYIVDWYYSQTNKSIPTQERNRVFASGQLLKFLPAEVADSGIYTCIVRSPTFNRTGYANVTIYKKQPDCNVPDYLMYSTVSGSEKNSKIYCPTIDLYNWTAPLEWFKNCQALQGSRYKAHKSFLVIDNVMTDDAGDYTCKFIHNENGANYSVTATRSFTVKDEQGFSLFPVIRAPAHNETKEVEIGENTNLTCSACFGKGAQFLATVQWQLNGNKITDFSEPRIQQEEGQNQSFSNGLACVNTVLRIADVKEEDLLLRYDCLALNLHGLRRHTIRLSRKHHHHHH


Key:
[1] = molecular target: T1, human ST2L extracellular domain with …; experiment: RLB ELISA: biotinylated IL-33 on coated huST2L-ECD, antibody titrated
Description: 96-well plate was coated with 50 μl of 4 μg/ml human ST2L-ECD (amino acids 19-328 of SEQ ID NO: 1) or 2 μg/ml cyno ST2L-ECD (amino acids 19-321 of SEQ ID NO: 2) having C-terminal His₆ tag in bicarbonate buffer at 4° C. for 16 hrs. All subsequent steps were performed at room temperature. Plate was blocked with 200 μl blocking buffer, and was washed 3 times with 300 μl of wash buffer containing PBS+0.05% Tween. 30 μl of various dilutions of anti-ST2L mAbs were added to the wells and incubated for 1 hour. For human receptor-ligand binding assay 20 μl of biotinylated human IL-33 (residues 112-270 of SEQ ID NO: 3) was added at 100 ng/ml final concentration and incubated for 30 minutes. For cyno receptor-ligand binding assay 20 μl of biotinylated cyno IL-33 (residues 112-269 of SEQ ID NO: 4) was added at 200 ng/ml final concentration and incubated for 30 minutes. The plate was washed 3 times with 300 μl of wash buffer. 50 μl of 0.2 μg/ml Streptavidin-HRP (Jackson Immunoresearch) was added and incubated for 30 min. The plate was washed 3 times with 300 μl of wash buffer containing PBS+0.05% Tween. 50 μl of TMB substrate (EMD Biosciences) was added to each well. Reaction was stopped by the addition of 100 μl of 0.2N Sulfuric Acid. OD450 were measured using Envision plate reader (Perkin Elmer).

[2] = molecular target: T2, human ST2L, full length, on cells; experiment: cell-based or functional assay
[3] = molecular target: T1, human ST2L extracellular domain with …; experiment: SPR, mAb captured, ST2L-ECD in solution
[4] = molecular target: T3, cynomolgus (Macaca fascicularis) ST2L …; experiment: SPR, mAb captured, ST2L-ECD in solution

Row | Binder | IC50 [1] [µg/mL] | RGA IC50 [2] [µg/mL] | Kd [3] [nM] | koff [3] [s⁻¹] | kon [3] [M⁻¹ s⁻¹] | Kd [4] [nM] | koff [4] [s⁻¹] | kon [4] [M⁻¹ s⁻¹]
1 | STLM219 (antibody, V domains shown, frameworks VH3-23 / Vk-L6) VH: EVQLLESGGGLVQPGGSLRLSCAASGFTFSGYDMFWVRQAPGKGLEWVSDIGGEGGSTNYADSVKGRFTISRDNSKNTLYLQMNSLRAEDTAVYYCARDPWSTEGSFFVLDYWGQGTLVTVSS VL: EIVLTQSPATLSLSPGERATLSCRASQSVDDDLAWYQQKPGQAPRLLIYDASNRATGIPARFSGSGSGTDFTLTISSLEPEDFAVYYCQQYIGAPITFGQGTKVEIK | 0.29 | 3.16 | 0.027 | 0.000201 | 7.54e+06 | 0.022 | 0.00023 | 1.07e+07
2 | STLM221 (antibody, V domains shown, frameworks VH3-23 / Vk-L6) VH: EVQLLESGGGLVQPGGSLRLSCAASGFTFSIYDMFWVRQAPGKGLEWVSYIRGEGGDTNYADSVKGRFTISRDNSKNTLYLQMNSLRAEDTAVYYCARDPWSTEGSFFVLDYWGQGTLVTVSS VL: EIVLTQSPATLSLSPGERATLSCRASQSVDDDLAWYQQKPGQAPRLLIYDASNRATGIPARFSGSGSGTDFTLTISSLEPEDFAVYYCQQYIGAPITFGQGTKVEIK | 0.39 | 2.79 | 0.035 | 9.61e-05 | 2.73e+06 | 0.022 | 0.00013 | 6.04e+06
3 | STLM222 (antibody, V domains shown, frameworks VH3-23 / Vk-L6) VH: EVQLLESGGGLVQPGGSLRLSCAASGFTFSIYSMFWVRQAPGKGLEWVSDIGGEGGGTSYADSVKGRFTISRDNSKNTLYLQMNSLRAEDTAVYYCARDPWSTEGSFFVLDYWGQGTLVTVSS VL: EIVLTQSPATLSLSPGERATLSCRASQSVDDDLAWYQQKPGQAPRLLIYDASNRATGIPARFSGSGSGTDFTLTISSLEPEDFAVYYCQQYIGAPITFGQGTKVEIK | 0.25 | 1.88 | 0.037 | 0.000301 | 8.22e+06 | 0.029 | 0.000345 | 1.18e+07
4 | STLM211 (antibody, V domains shown, frameworks VH3-23 / Vk-L6) VH: EVQLLESGGGLVQPGGSLRLSCAASGFTFSGYAMIWVRQAPGKGLEWVSYIEGEGGETYYADSVKGRFTISRDNSKNTLYLQMNSLRAEDTAVYYCARDPWSTEGSFFVLDYWGQGTLVTVSS VL: EIVLTQSPATLSLSPGERATLSCRASQSVDDDLAWYQQKPGQAPRLLIYDASNRATGIPARFSGSGSGTDFTLTISSLEPEDFAVYYCQQYNDAITFGQGTKVEIK | 0.28 | 2.52 | 0.029 | 0.000483 | 1.7e+07 | 0.014 | 0.00139 | 1e+08
5 | STLM210 (antibody, V domains shown, frameworks VH3-23 / Vk-L6) VH: EVQLLESGGGLVQPGGSLRLSCAASGFTFSDDAMIWVRQAPGKGLEWVSYIGGNGGTTYYADSVKGRFTISRDNSKNTLYLQMNSLRAEDTAVYYCARDPWSTEGSFFVLDYWGQGTLVTVSS VL: EIVLTQSPATLSLSPGERATLSCRASQSVDDDLAWYQQKPGQAPRLLIYDASNRATGIPARFSGSGSGTDFTLTISSLEPEDFAVYYCQQYNDAITFGQGTKVEIK | 0.3 | 2.1 | 0.019 | 0.000227 | 1.21e+07 | 0.009 | 0.000528 | 5.7e+07
6 | STLM212 (antibody, V domains shown, frameworks VH3-23 / Vk-L6) VH: EVQLLESGGGLVQPGGSLRLSCAASGFTFSVYDMIWVRQAPGKGLEWVSTIRGEGGGTYYADSVKGRFTISRDNSKNTLYLQMNSLRAEDTAVYYCARDPWSTEGSFFVLDYWGQGTLVTVSS VL: EIVLTQSPATLSLSPGERATLSCRASQSVDDDLAWYQQKPGQAPRLLIYDASNRATGIPARFSGSGSGTDFTLTISSLEPEDFAVYYCQQYNDAITFGQGTKVEIK | 0.33 | 4.32 | 0.032 | 0.000398 | 1.24e+07 | 0.024 | 0.000346 | 1.43e+07
7 | STLM226 (antibody, V domains shown, VH STLH201 + VL STLL280) VH: EVQLVQSGAEVKKPGATVKISCKVSAFNIKDDYMHWVQQAPGKGLEWMGRIDPAIGNTEYAEKFQGRVTITADTSTDTAYMELSSLRSEDTAVYYCATGDFYAMAYWGQGTLVTVSS VL: DIQMTQSPSSLSASVGDRVTITCITNTDIDDVIHWYQQKPGKAPKLLIYEGNTLRPGVPSRFSGSGSGTDFTLTISSLQPEDFATYYCLQSDNLLTFGQGTKLEIK | 0.26 | 0.25 | 0.09 | 0.00193 | 2.16e+07 | 0.301 | 0.0301 | 1e+08
8 | STLM227 (antibody, V domains shown, VH STLH201 + VL STLL277) VH: EVQLVQSGAEVKKPGATVKISCKVSAFNIKDDYMHWVQQAPGKGLEWMGRIDPAIGNTEYAEKFQGRVTITADTSTDTAYMELSSLRSEDTAVYYCATGDFYAMAYWGQGTLVTVSS VL: DIQLTQSPSFLSASVGDRVTITCITNTDIDDVIHWYQQKPGKAPKLLIYEGNTLRPGVPSRFSGSGSGTEFTLTISSLQPEDFATYYCLQSDNMLTFGQGTKLEIK | 0.17 | 0.23 | 0.064 | 0.0017 | 2.66e+07 | 0.294 | 0.0294 | 1e+08
9 | STLM228 (antibody, V domains shown, VH STLH201 + VL STLL276) VH: EVQLVQSGAEVKKPGATVKISCKVSAFNIKDDYMHWVQQAPGKGLEWMGRIDPAIGNTEYAEKFQGRVTITADTSTDTAYMELSSLRSEDTAVYYCATGDFYAMAYWGQGTLVTVSS VL: DIQMTQSPSTLSASVGDRVTITCITNTDIDDVIHWYQQKPGKAPKLLIYEGNTLRPGVPSRFSGSGSGTEFTLTISSLQPDDFATYYCLQSDNMLTFGQGTKLEIK | 0.2 | 0.28 | 0.052 | 0.00104 | 2.01e+07 | 0.155 | 0.0155 | 1e+08
10 | STLM229 (antibody, V domains shown, VH STLH201 + VL STLL275) VH: EVQLVQSGAEVKKPGATVKISCKVSAFNIKDDYMHWVQQAPGKGLEWMGRIDPAIGNTEYAEKFQGRVTITADTSTDTAYMELSSLRSEDTAVYYCATGDFYAMAYWGQGTLVTVSS VL: DIQMTQSPSSVSASVGDRVTITCITNTDIDDVIHWYQQKPGKAPKLLIYEGNTLRPGVPSRFSGSGSGTDFTLTISSLQPEDFATYYCLQSDNMLTFGQGTKLEIK | 0.29 | 0.32 | 0.035 | 0.000445 | 1.29e+07 | 0.085 | 0.0085 | 1e+08
11 | STLM230 (antibody, V domains shown, VH STLH201 + VL STLL274) VH: EVQLVQSGAEVKKPGATVKISCKVSAFNIKDDYMHWVQQAPGKGLEWMGRIDPAIGNTEYAEKFQGRVTITADTSTDTAYMELSSLRSEDTAVYYCATGDFYAMAYWGQGTLVTVSS VL: DIQMTQSPSSLSASVGDRVTITCITNTDIDDVIHWYQQKPGKAPKLLIYEGNTLRPGVPSRFSGSGSGTDFTLTISSLQPEDFATYYCLQSDNMLTFGQGTKLEIK | 0.28 | 0.15 | 0.038 | 0.000426 | 1.11e+07 | 0.144 | 0.0073 | 5.06e+07
